What was measured:
Conditions in all cases: remark: other sources report otherwise
[1] = biological target: T1, recombinant soluble homotrimeric HA of A/Netherlands/219/03 (H7N7) (Influenza A virus A/Netherlands/219/03(H7N7)); assay: trimeric HA microarray, transfection supernatant set 4
[2] = biological target: T2, recombinant soluble homotrimeric HA of A/California/4/09 (H1N1) (Influenza A virus A/California/04/2009(H1N1)); assay: as above
[3] = biological target: T3, recombinant soluble homotrimeric HA of A/Indonesia/5/05 (H5N1) (Influenza A virus A/Indonesia/5/2005(H5N1)); assay: as above
[4] = biological target: recombinant soluble homotrimeric HA of A/northern shoveler/California/HKWF115/07 (H6) (Influenza A virus A/northern shoveler/California/HKWF115/2007(H6N1)); assay: as above
[5] = biological target: recombinant soluble homotrimeric HA of A/Anhui/1/05 (H5N1) (Influenza A virus A/Anhui/1/2005(H5N1)); assay: as above
[6] = biological target: T4, recombinant soluble homotrimeric HA of A/chicken/Vietnam/NCVD-016/08 (H5N1) (Influenza A virus A/chicken/Vietnam/NCVD-016/2008(H5N1)); assay: as above
[7] = biological target: T5, recombinant soluble homotrimeric HA of A/Solomon Islands/3/06 (H1N1) (Influenza A virus A/Solomon Islands/3/2006(H1N1)); assay: as above
[8] = biological target: T6, recombinant soluble homotrimeric HA of A/Vietnam/1203/04 (H5N1) (Influenza A virus A/VietNam/1203/2004(H5N1)); assay: as above
[9] = biological target: T7, recombinant soluble homotrimeric HA of A/South Carolina/1/18 (H1N1) (Influenza A virus A/South Carolina/1/18 (H1N1)); assay: as above
[10] = biological target: T8, recombinant soluble homotrimeric HA of A/Japan/305/57 (H2N2) (Influenza A virus A/Japan/305/1957(H2N2)); assay: as above
[11] = biological target: recombinant soluble homotrimeric HA of A/Hong Kong/1073/99 (H9N2) (Influenza A virus A/Hong Kong/1073/99 (H9N2)); assay: as above
[12] = biological target: T9, recombinant soluble homotrimeric HA of A/Egypt/3300-NAMRU3/08 (H5N1) (Influenza A virus A/Egypt/3300-NAMRU3/2008(H5N1)); assay: as above
[13] = biological target: T3, recombinant soluble homotrimeric HA of …; assay: trimeric HA microarray, transfection supernatant set 3
[14] = biological target: T4, recombinant soluble homotrimeric HA of …; assay: as above
[15] = biological target: T9, recombinant soluble homotrimeric HA of …; assay: as above
[16] = biological target: T1, recombinant soluble homotrimeric HA of …; assay: trimeric HA microarray, transfection supernatant set 1
[17] = biological target: T2, recombinant soluble homotrimeric HA of …; assay: as above
[18] = biological target: T5, recombinant soluble homotrimeric HA of …; assay: as above
[19] = biological target: T6, recombinant soluble homotrimeric HA of …; assay: as above
[20] = biological target: T7, recombinant soluble homotrimeric HA of …; assay: as above
[21] = biological target: T8, recombinant soluble homotrimeric HA of …; assay: as above
[22] = biological target: recombinant soluble homotrimeric HA of A/duck/Yangzhou/02/05 (H8N4) (Influenza A virus A/duck/Yangzhou/02/2005(H8N4)); assay: trimeric HA microarray, transfection supernatant set 4
[23] = biological target: recombinant soluble homotrimeric HA of A/swine/Ontario/01911-2/99 (H4N6) (Influenza A virus A/Swine/Ontario/01911-2/99 (H4N6)); assay: as above
[24] = biological target: recombinant soluble homotrimeric HA of A/Wisconsin/67/05 (H3N2) (Influenza A virus A/Wisconsin/67/2005(H3N2)); assay: as above
[25] = biological target: recombinant soluble homotrimeric HA, A/swine/Ontario/01911-2/99 H4N6 (Influenza A virus A/Swine/Ontario/01911-2/99 (H4N6)); assay: microarray, transfection SN IgG, trimeric HA
[26] = biological target: recombinant soluble homotrimeric HA, A/Netherlands/219/03 H7N7 (Influenza A virus A/Netherlands/219/03(H7N7)); assay: microarray, transfection SN IgG, trimeric HA

B1: TCN-523 (5248_A17) (antibody, V domains shown)
VH: QVQLVQSGAEVKKPGSSVKVSCKASGGSFSNYAFSWVRQAPGQGLEWMGGTIPLLGTTNYAQKFQGRVTISADQFTSTAYMELGSLRSEDTAVYYCTRRKMTTAFDSWGQGTLVTVSS
VL: QPVLTQPPSASASLGASVTLTCTLSSAYSNYKVDWYQQRPGKGPRFVMRVGTGGIVGSKGDGIPDRFSVLGSGLNRYLTIKNIQEEDESDYHCGADHGSGSNFVSPYVFGGGTKLTVL
[1]
  Trimeric HA Binding: RLU: 443 RLU
[2]
  Trimeric HA Binding: RLU: 28800 RLU
[3]
  Trimeric HA Binding: RLU: 24500 RLU
[4]
  Trimeric HA Binding: RLU: 25100 RLU
[5]
  Trimeric HA Binding: RLU: 48 RLU
[6]
  Trimeric HA Binding: RLU: 24000 RLU
[7]
  Trimeric HA Binding: RLU: 371 RLU
[8]
  Trimeric HA Binding: RLU: 30900 RLU
[9]
  Trimeric HA Binding: RLU: 23000 RLU
[10]
  Trimeric HA Binding: RLU: 3840 RLU
[11]
  Trimeric HA Binding: RLU: 24600 RLU
[12]
  Trimeric HA Binding: RLU: 33400 RLU
[13]
  Trimeric HA Binding: RLU: 22000 RLU
[14]
  Trimeric HA Binding: RLU: 18900 RLU
[15]
  Trimeric HA Binding: RLU: 29100 RLU
[16]
  Trimeric HA Binding: RLU: 28 RLU
[17]
  Trimeric HA Binding: RLU: 17700 RLU
[18]
  Trimeric HA Binding: RLU: 6780 RLU
[19]
  Trimeric HA Binding: RLU: 80 RLU
[20]
  Trimeric HA Binding: RLU: 26400 RLU
[21]
  Trimeric HA Binding: RLU: 191 RLU

B2: TCN-504 (3251_K17) (antibody, V domains shown)
VH: QVQLQESGPGLVKPSETLSLTCAVSGVSISNIDFYWGWIRQPPGKGLEWIGNIYYTGITFYNPSLSSRVAISIDTSKNQFSLTLTSVTAADTAMYYCARHYGDSEAINDAFDIWGQGTMLTVSS
VL: EIVMTQSPATLSVSPGERATLSCRASQSVGNSLAWYQQRPGQAPRLLIYGASTRATGIPPRFSGSGSGTEFTLTISSLQTEDFAVYYCQQYINWRPLSFGGGTKVEIK
[1]
  Trimeric HA Binding: RLU: 6710 RLU
[2]
  Trimeric HA Binding: RLU: 549 RLU
[3]
  Trimeric HA Binding: RLU: 18200 RLU
[5]
  Trimeric HA Binding: RLU: 14100 RLU
[6]
  Trimeric HA Binding: RLU: 19200 RLU
[7]
  Trimeric HA Binding: RLU: 14600 RLU
[22]
  Trimeric HA Binding: RLU: 19900 RLU
[23]
  Trimeric HA Binding: RLU: 21800 RLU
[8]
  Trimeric HA Binding: RLU: 25700 RLU
[9]
  Trimeric HA Binding: RLU: 21700 RLU
[10]
  Trimeric HA Binding: RLU: 19600 RLU
[12]
  Trimeric HA Binding: RLU: 24800 RLU
[24]
  Trimeric HA Binding: RLU: 20600 RLU
[25]
  Trimeric HA Binding: RLU: 54800 RLU
[26]
  Trimeric HA Binding: RLU: 30600 RLU
[13]
  Trimeric HA Binding: RLU: 18600 RLU
[14]
  Trimeric HA Binding: RLU: 10300 RLU
[15]
  Trimeric HA Binding: RLU: 18000 RLU
[16]
  Trimeric HA Binding: RLU: 23800 RLU
[17]
  Trimeric HA Binding: RLU: 18300 RLU
[18]
  Trimeric HA Binding: RLU: 29800 RLU
[19]
  Trimeric HA Binding: RLU: 1300 RLU
[20]
  Trimeric HA Binding: RLU: 21500 RLU
[21]
  Trimeric HA Binding: RLU: 15100 RLU
